According to PMC3020918:

Molecular target: myc-Snc2p (S. cerevisiae) (UniProt P33328)
Test: co-IP

UniProt P33328, sequence (P33328 whole entry): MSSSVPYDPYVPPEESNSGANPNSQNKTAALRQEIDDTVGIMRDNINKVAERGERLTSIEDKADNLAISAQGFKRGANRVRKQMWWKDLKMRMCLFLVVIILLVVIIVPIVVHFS

Question: “Sso1/2p (endogenous) (from UniProt P32867 1-290) (natural protein)” was tested. Which percent reduction of co-precipitation, wt cells at 37°C against 30°C did it give?
Answer: 10%
